Literature values in paper PMC3727077.
Read-outs that look alike come from different tables or passages of the source.

Key:
NRP1 (Homo sapiens) [1] = biological target: NRP1 (Homo sapiens) (UniProt O14786)
α2M (Homo sapiens) = α2M (Homo sapiens) (UniProt P01023)
α2MFAST (Homo sapiens) = α2MFAST (Homo sapiens) (UniProt P01023)
VEGFR2 (Homo sapiens) = VEGFR2 (Homo sapiens) (UniProt P35968)
VEGFR1 (Homo sapiens) = VEGFR1 (Homo sapiens) (UniProt P17948)
NRP1 (Homo sapiens) [2] = biological target: NRP1 (Homo sapiens) (UniProt O14786); remark: listed apart in the source

Sequence of UniProt P35968 (P35968 20-1356): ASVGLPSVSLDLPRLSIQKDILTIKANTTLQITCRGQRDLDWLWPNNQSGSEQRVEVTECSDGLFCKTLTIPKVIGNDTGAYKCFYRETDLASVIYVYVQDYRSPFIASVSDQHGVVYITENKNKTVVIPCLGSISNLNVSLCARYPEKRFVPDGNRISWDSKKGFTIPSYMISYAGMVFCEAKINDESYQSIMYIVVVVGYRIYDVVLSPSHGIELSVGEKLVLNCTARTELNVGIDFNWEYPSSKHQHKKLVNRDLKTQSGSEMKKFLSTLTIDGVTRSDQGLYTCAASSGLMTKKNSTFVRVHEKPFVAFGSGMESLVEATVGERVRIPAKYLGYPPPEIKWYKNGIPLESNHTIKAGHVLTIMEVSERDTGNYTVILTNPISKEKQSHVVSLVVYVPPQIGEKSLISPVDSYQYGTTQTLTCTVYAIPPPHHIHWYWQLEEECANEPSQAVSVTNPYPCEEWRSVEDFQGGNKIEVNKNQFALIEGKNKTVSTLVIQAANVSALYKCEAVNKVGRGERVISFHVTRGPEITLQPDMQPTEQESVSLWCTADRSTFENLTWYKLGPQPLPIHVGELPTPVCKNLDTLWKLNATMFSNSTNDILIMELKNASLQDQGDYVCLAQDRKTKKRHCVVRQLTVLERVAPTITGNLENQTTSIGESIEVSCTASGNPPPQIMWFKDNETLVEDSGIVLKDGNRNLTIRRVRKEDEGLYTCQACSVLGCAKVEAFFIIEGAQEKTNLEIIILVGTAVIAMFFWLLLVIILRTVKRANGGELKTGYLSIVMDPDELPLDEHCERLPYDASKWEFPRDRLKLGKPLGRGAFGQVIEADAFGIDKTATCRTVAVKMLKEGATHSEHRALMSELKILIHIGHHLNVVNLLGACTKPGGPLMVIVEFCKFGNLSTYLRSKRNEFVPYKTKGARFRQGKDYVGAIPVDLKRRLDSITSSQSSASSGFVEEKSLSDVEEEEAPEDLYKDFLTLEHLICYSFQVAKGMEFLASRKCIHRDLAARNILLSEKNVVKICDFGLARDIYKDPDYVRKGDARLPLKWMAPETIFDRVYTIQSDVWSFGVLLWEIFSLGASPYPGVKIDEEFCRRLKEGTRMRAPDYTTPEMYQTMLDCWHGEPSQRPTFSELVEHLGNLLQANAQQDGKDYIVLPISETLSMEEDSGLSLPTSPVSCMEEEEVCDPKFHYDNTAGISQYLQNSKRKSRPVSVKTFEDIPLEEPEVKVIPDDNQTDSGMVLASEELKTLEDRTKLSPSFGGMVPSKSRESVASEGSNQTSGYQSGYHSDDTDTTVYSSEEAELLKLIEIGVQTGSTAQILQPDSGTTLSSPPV

Substance	Kd (NRP1 (Homo sapiens) [1])	Kd (α2M (Homo sapiens))	Kd (α2MFAST (Homo sapiens))	Kd (VEGFR2 (Homo sapiens))	Kd (VEGFR1 (Homo sapiens))	Kd (NRP1 (Homo sapiens) [2])
sVEGFR1 soluble (from UniProt P17948)	1.8 nM					
VEGF (from UniProt P15692)		4000 nM	420 nM	0.1 nM	0.033 nM	0.312 nM
